The values that follow come from doi:10.1101/2022.04.04.486996 (bioRxiv, 2022).

Series [1] addresses T1, E. coli ketosynthase FabF (E. coli, UniProt P0AAI5 1-413).
T1 sequence: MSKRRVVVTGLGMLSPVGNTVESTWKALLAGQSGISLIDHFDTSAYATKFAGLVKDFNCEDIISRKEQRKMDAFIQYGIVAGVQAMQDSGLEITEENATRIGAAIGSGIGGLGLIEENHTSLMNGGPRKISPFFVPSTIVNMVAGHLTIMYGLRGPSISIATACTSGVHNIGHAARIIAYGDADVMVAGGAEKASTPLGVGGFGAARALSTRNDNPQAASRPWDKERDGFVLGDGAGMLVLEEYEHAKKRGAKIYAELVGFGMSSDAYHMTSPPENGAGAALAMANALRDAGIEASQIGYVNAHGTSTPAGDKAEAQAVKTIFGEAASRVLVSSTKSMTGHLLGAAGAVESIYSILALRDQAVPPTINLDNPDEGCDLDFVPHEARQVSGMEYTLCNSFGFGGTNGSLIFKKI
Description: cross-linking.

The series “crystal structure” concerns the molecule itself. The series can be described thus: crystal structure.

The stoichiometry N is a count of units in the complex or per binding partner.

B1: ACP loaded with the (Z)-C14Cl chloroacrylate crosslinking probe (crypto-ACP) (natural protein, E. coli)
chain: STIEERVKKIIGEQLGVKQEEVTNNASFVEDLGADSLDTVELVMALEEEFDTEIPDEEAEKITTVQAAIDYINGHQA
modifications: S36 carries the 4'-phosphopantetheine analogue with the (Z)-C14Cl (C14-chloroacrylate) crosslinking probe
Consider B1, for which the binding result in series [1] is “binds”.

B2: E. coli ketosynthase FabB (enzyme)
chain: MKRAVITGLGIVSSIGNNQQEVLASLREGRSGITFSQELKDSGMRSHVWGNVKLDTTGLIDRKVVRFMSDASIYAFLSMEQAIADAGLSPEAYQNNPRVGLIAGSGGGSPRFQVFGADAMRGPRGLKAVGPYVVTKAMASGVSACLATPFKIHGVNYSISSACATSAHCIGNAVEQIQLGKQDIVFAGGGEELCWEMACEFDAMGALSTKYNDTPEKASRTYDAHRDGFVIAGGGGMVVVEELEHALARGAHIYAEIVGYGATSDGADMVAPSGEGAVRCMKMAMHGVDTPIDYLNSHGTSTPVGDVKELAAIREVFGDKSPAISATKAMTGHSLGAAGVQEAIYSLLMLEHGFIAPSINIEELDEQAAGLNIVTETTDRELTTVMSNSFGFGGTNATLVMRKLKD
Consider B2, for which, in “crystal structure”, the “stoichiometry N” value stood at 2.
